# US20150175711A1 (SINOMAB BIOSCIENCE, published 2015)
# B1: scFv Phage #3 (scFv)
# scFv: QVQLVQSGPELVKPGASVKMSCKASGYTFTNYVTHWVKQKPGQGLEWIGYINPYSDGSKYNEKFKGKATLTSDESSSTAYMEVSSLTSEDSAVYYCARGKTEWFPYWGQGTPLTVSGGGGSGSGSSGGGGDIVLTQTPASLAVSLGQRATISCKASQSVDYDGDSYMNWYQQKPGQPPKLLIYAASNLESGIPARFSGSGSGTDFTLNIHPVEEEDAATYYCQQSNEDPFTFGGGTKLEI
# notes: the phage coat protein fusion is not described; also called scFv isolated from phage #3
# Tests used:
# [1] = target: anti-idiotype mIgG Fab-GPI-DAF fusion protein on transfected SP2/0 cells; test: cell-based ELISA, SM03 on transfected SP2/0 GPI clone 1 (surface expression graded -), anti-human Fc-HRP
# [2] = target: anti-idiotype mIgG Fab-GPI-DAF fusion protein on transfected SP2/0 cells; test: cell-based ELISA, SM03 on transfected SP2/0 GPI clone 5 (surface expression graded +), anti-human Fc-HRP
# [3] = target: anti-idiotype mIgG Fab-GPI-DAF fusion protein on transfected SP2/0 cells; test: cell-based ELISA, SM03 on transfected SP2/0 GPI clone 6 (surface expression graded -), anti-human Fc-HRP
# [4] = target: anti-idiotype mIgG Fab-GPI-DAF fusion protein on transfected SP2/0 cells; test: cell-based ELISA, SM03 on transfected SP2/0 GPI clone 7 (surface expression graded -), anti-human Fc-HRP
# [5] = target: anti-idiotype mIgG Fab-GPI-DAF fusion protein on transfected SP2/0 cells; test: cell-based ELISA, SM03 on transfected SP2/0 GPI clone 8 (surface expression graded -), anti-human Fc-HRP
# [6] = target: anti-idiotype mIgG Fab-GPI-DAF fusion protein on transfected SP2/0 cells; test: cell-based ELISA, SM03 on transfected SP2/0 GPI clone 9 (surface expression graded -), anti-human Fc-HRP
# [7] = target: anti-idiotype mIgG Fab-GPI-DAF fusion protein on transfected SP2/0 cells; test: cell-based ELISA, SM03 on transfected SP2/0 GPI clone 10 (surface expression graded -), anti-human Fc-HRP
# [8] = target: anti-idiotype mIgG Fab-GPI-DAF fusion protein on transfected SP2/0 cells; test: cell-based ELISA, SM03 on transfected SP2/0 GPI clone 3 (surface expression graded +++), anti-human Fc-HRP
# [9] = target: anti-idiotype mIgG Fab-GPI-DAF fusion protein on transfected SP2/0 cells; test: cell-based ELISA, SM03 on transfected SP2/0 GPI clone 4 (surface expression graded +++), anti-human Fc-HRP
# [10] = target: anti-idiotype mIgG Fab-glycophorin A fusion protein on transfected SP2/0 cells; test: cell-based ELISA, SM03 on transfected SP2/0 GlycoA clone 1 (surface expression graded -), anti-human Fc-HRP
# [11] = target: anti-idiotype mIgG Fab-glycophorin A fusion protein on transfected SP2/0 cells; test: cell-based ELISA, SM03 on transfected SP2/0 GlycoA clone 3 (surface expression graded -), anti-human Fc-HRP
# [12] = target: anti-idiotype mIgG Fab-glycophorin A fusion protein on transfected SP2/0 cells; test: cell-based ELISA, SM03 on transfected SP2/0 GlycoA clone 8 (surface expression graded -), anti-human Fc-HRP
# [13] = target: anti-idiotype mIgG Fab-glycophorin A fusion protein on transfected SP2/0 cells; test: cell-based ELISA, SM03 on transfected SP2/0 GlycoA clone 9 (surface expression graded -), anti-human Fc-HRP
# [14] = target: anti-idiotype mIgG Fab-glycophorin A fusion protein on transfected SP2/0 cells; test: cell-based ELISA, SM03 on transfected SP2/0 GlycoA clone 10 (surface expression graded -), anti-human Fc-HRP
# [15] = target: anti-idiotype mIgG Fab-glycophorin A fusion protein on transfected SP2/0 cells; test: cell-based ELISA, SM03 on transfected SP2/0 GlycoA clone 14 (surface expression graded -), anti-human Fc-HRP
# [16] = target: anti-idiotype mIgG Fab-glycophorin A fusion protein on transfected SP2/0 cells; test: cell-based ELISA, SM03 on transfected SP2/0 GlycoA clone 5 (surface expression graded +++), anti-human Fc-HRP
# [17] = target: anti-idiotype mIgG Fab-glycophorin A fusion protein on transfected SP2/0 cells; test: cell-based ELISA, SM03 on transfected SP2/0 GlycoA clone 15 (surface expression graded +++), anti-human Fc-HRP
# [18] = target: anti-idiotype IgD-TM on transfected SP2/0 cells; test: cell-based ELISA, SM03 10 ug/ml on transfected SP2/0 Clone AB4 (surface expression graded -), anti-human Fc-HRP
# [19] = target: anti-idiotype IgD-TM on transfected SP2/0 cells; test: cell-based ELISA, SM03 10 ug/ml on transfected SP2/0 Clone AF9 (surface expression graded -), anti-human Fc-HRP
# [20] = target: anti-idiotype IgD-TM on transfected SP2/0 cells; test: cell-based ELISA, SM03 10 ug/ml on transfected SP2/0 Clone BB4 (surface expression graded -), anti-human Fc-HRP
# [21] = target: anti-idiotype IgD-TM on transfected SP2/0 cells; test: cell-based ELISA, SM03 10 ug/ml on transfected SP2/0 Clone BB5 (surface expression graded -), anti-human Fc-HRP
# [22] = target: anti-idiotype IgD-TM on transfected SP2/0 cells; test: cell-based ELISA, SM03 10 ug/ml on transfected SP2/0 Clone BF9 (surface expression graded -), anti-human Fc-HRP
# [23] = target: anti-idiotype IgD-TM on transfected SP2/0 cells; test: cell-based ELISA, SM03 10 ug/ml on transfected SP2/0 Clone AG5 (surface expression graded +++), anti-human Fc-HRP
# BSA = target: T1, BSA (UniProt P02769 25-607); test: phage ELISA, 1 ug BSA coated per well, anti-M13-HRP detection
# T1 construct: also called control protein (BSA)
# Method: Phages that survived panning were rescued. The binding specificities of selected phages were evaluated by Phage-ELISA using the target anti-CD22 antibodies RFB4, SM03, and framework-patched (humanized) SM06 and other control antibodies as antigens. […] After washing five times with borate washing buffer, pH8.0, horse radish peroxidase (HRP)-conjugated anti-M13 mouse antibody (Amersham) at a dilution fold of 3,000 was added.
# Chain of anti-idiotype mIgG Fab-glycophorin A fusion protein on transfected SP2/0 cells (heavy, as listed by the source limits assumed, chain 1 of 2): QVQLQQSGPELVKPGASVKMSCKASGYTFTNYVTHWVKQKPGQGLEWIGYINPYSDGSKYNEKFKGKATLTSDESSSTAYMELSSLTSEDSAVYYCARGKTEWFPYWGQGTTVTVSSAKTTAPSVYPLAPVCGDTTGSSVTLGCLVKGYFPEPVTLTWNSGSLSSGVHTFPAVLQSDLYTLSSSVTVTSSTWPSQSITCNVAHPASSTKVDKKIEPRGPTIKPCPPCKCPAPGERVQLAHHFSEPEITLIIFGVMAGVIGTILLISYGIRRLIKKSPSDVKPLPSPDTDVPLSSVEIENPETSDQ
# Chain of anti-idiotype mIgG Fab-glycophorin A fusion protein on transfected SP2/0 cells (light, as listed by the source limits assumed, chain 2 of 2): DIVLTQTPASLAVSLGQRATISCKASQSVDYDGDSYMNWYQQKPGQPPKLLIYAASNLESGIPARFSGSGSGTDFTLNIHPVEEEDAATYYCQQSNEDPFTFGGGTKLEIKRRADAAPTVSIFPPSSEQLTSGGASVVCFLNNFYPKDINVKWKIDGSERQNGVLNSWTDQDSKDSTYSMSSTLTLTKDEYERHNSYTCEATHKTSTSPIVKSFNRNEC
# Chain of anti-idiotype IgD-TM on transfected SP2/0 cells (heavy, as listed by the source limits assumed, chain 1 of 2): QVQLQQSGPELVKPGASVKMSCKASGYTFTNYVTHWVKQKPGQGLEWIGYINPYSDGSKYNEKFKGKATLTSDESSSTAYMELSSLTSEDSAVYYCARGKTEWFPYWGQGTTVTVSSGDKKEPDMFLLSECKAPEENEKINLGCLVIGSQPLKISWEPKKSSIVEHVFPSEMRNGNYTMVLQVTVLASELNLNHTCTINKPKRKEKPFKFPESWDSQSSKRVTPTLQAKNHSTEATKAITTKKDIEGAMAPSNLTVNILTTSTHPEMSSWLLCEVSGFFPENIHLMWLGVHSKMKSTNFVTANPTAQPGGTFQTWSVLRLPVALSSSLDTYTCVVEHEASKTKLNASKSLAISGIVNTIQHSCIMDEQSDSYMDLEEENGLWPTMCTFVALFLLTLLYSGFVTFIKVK
# Chain of anti-idiotype IgD-TM on transfected SP2/0 cells (light, as listed by the source limits assumed, chain 2 of 2): as the sequence (light, as listed by the source limits assumed, chain 2 of 2) above
# Chain of anti-idiotype mIgG Fab-GPI-DAF fusion protein on transfected SP2/0 cells (heavy, as listed by the source): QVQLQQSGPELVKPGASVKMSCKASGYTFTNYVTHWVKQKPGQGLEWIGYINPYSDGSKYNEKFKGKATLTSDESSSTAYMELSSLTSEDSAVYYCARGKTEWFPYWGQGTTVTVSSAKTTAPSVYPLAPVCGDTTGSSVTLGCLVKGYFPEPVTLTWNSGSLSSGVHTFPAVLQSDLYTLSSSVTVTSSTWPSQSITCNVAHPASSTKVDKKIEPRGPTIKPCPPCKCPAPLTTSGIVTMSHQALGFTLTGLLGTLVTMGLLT
# T1 sequence (P02769 25-607 limits assumed): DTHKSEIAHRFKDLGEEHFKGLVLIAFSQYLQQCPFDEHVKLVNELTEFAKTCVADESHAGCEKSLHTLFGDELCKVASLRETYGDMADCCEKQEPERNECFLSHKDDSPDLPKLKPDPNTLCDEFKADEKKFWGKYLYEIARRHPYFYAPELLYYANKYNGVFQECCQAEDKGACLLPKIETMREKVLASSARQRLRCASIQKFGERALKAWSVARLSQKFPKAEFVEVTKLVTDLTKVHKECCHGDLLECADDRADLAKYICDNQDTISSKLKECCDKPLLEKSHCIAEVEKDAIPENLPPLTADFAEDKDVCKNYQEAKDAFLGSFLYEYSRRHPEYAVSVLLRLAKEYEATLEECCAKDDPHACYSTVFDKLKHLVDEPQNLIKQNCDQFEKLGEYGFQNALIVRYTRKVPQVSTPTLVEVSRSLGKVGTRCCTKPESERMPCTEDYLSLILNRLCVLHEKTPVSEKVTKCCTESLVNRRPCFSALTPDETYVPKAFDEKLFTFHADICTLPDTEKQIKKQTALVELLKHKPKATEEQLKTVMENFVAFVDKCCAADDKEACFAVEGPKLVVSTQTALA
molecule,measurement,setting,value
SM03 chimeric anti-CD22 antibody,OD450 nm,[1],0.623 OD450 nm
same,OD450 nm,[2],0.977 OD450 nm
same,OD450 nm,[3],0.736 OD450 nm
same,OD450 nm,[4],0.7 OD450 nm
same,OD450 nm,[5],0.618 OD450 nm
same,OD450 nm,[6],0.618 OD450 nm
same,OD450 nm,[7],0.85 OD450 nm
same,OD450 nm,[8],3.64 OD450 nm
same,OD450 nm,[9],3.77 OD450 nm
same,OD450 nm,[10],0.579 OD450 nm
same,OD450 nm,[11],0.406 OD450 nm
same,OD450 nm,[12],0.284 OD450 nm
same,OD450 nm,[13],0.716 OD450 nm
same,OD450 nm,[14],0.498 OD450 nm
same,OD450 nm,[15],0.437 OD450 nm
same,OD450 nm,[16],3.53 OD450 nm
same,OD450 nm,[17],3.38 OD450 nm
same,OD450 nm,[18],0.428 OD450 nm
same,OD450 nm,[19],0.329 OD450 nm
same,OD450 nm,[20],0.501 OD450 nm
same,OD450 nm,[21],0.572 OD450 nm
same,OD450 nm,[22],0.459 OD450 nm
same,OD450 nm,[23],3.08 OD450 nm
B1,binding result,BSA,no binding
